Measurements taken from IntAct's records for PubMed 22493223.

B1: Mitotic spindle assembly checkpoint protein MAD1 (Homo sapiens), Q9Y6D9 (parent)
chain: MEDLGENTMVLSTLRSLNNFISQRVEGGSGLDISTSAPGSLQMQYQQSMQLEERAEQIRSKSHLIQVEREKMQMELSHKRARVELERAASTSARNYEREVDRNQELLTRIRQLQEREAGAEEKMQEQLERNRQCQQNLDAASKRLREKEDSLAQAGETINALKGRISELQWSVMDQEMRVKRLESEKQELQEQLDLQHKKCQEANQKIQELQASQEARADHEQQIKDLEQKLSLQEQDAAIVKNMKSELVRLPRLERELKQLREESAHLREMRETNGLLQEELEGLQRKLGRQEKMQETLVGLELENERLLAKLQSWERLDQTMGLSIRTPEDLSRFVVELQQRELALKDKNSAVTSSARGLEKARQQLQEELRQVSGQLLEERKKRETHEALARRLQKRVLLLTKERDGMRAILGSYDSELTPAEYSPQLTRRMREAEDMVQKVHSHSAEMEAQLSQALEELGGQKQRADMLEMELKMLKSQSSSAEQSFLFSREEADTLRLKVEELEGERSRLEEEKRMLEAQLERRALQGDYDQSRTKVLHMSLNPTSVARQRLREDHSQLQAECERLRGLLRAMERGGTVPADLEAAAASLPSSKEVAELKKQVESAELKNQRLKEVFQTKIQEFRKACYTLTGYQIDITTENQYRLTSLYAEHPGDCLIFKATSPSGSKMQLLETEFSHTVGELIEVHLRRQDSIPAFLSSLTLELFSRQTVA

Variants of: B1
Settings: with md2l1_human MAD2L1, Q13257
Sequence of md2l1_human MAD2L1, Q13257 (Q13257 whole entry): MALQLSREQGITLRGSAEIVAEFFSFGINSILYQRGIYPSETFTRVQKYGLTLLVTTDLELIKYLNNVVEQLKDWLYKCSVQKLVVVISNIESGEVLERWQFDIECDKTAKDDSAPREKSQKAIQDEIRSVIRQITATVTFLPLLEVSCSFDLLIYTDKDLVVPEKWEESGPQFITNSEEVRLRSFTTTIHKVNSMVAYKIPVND

**Q.** K541A;V542A;L543A;H544A;M545A was tested. Which “effect of a mutation on the interaction” value did it give?
**A.** disrupting interaction strength
